Results reported in US20260234245A1 (ELTHERA, published 2026).
Where a chain is given by its changes, count along the chain named. Names and notes keep the numbering of the source.

B1: AFF5 (antibody, human IgG1, V domains shown)
VH: QVQLQESGPGLVKPSQTLSLTCTVTGYSITSDYTWNWIRQFPGKGLEWMGYISYSGSYSYHPSLKSRVTISRDTSKNQFSLKLSSVTAADTAVYYCARSLSYGYGFAYWGQGTLVTVSS
VL: DIQMTQSPSSLSASVGDRVTITCKASQDVSSAVAWYQQKPGKAPKLLIYSASYRYTGVPSRFSGSGSGTDFTFTISSLQPEDFATYYCQQHYSTPWTFGGGTKVEIK
B2: AFF1 (antibody, human IgG1, V domains shown)
VH: B1 VH with T34A, Y58F, H61N, L100F, G103S
VL: B1 VL
B3: AFF3 (antibody, human IgG1, V domains shown)
VH: B1 VH with T34A, H61N, L100F, G103S
VL: B1 VL
B4: AFF7 (antibody, human IgG1, V domains shown)
VH: B1 VH with T34A, Y58F, H61N, L100F, G103S
VL: B1 VL with T56I
B5: AFF10 (antibody, human IgG1, V domains shown)
VH: B1 VH with L100F
VL: B1 VL
B6: AFF2 (antibody, human IgG1, V domains shown)
VH: B1 VH with Y58F, H61N, L100F, G103S
VL: B1 VL
B7: AFF8 (antibody, human IgG1, V domains shown)
VH: B1 VH with Y58F, H61N, L100F, G103S
VL: B1 VL with T56I
B8: AFF9 (antibody, human IgG1, V domains shown)
VH: B1 VH with T34A, H61N, L100F, G103A
VL: B1 VL
B9: AFF6 (antibody, human IgG1, V domains shown)
VH: B1 VH with Y58F, H61N
VL: B1 VL
B10: Humanized optimized antibody “AFF4” (human IgG format; with G236A/S239D/A330L/I332E mutations) (antibody)
heavy: QVQLQESGPGLVKPSQTLSLTCTVTGYSITSDYTWNWIRQFPGKGLEWMGYISYSGSYSYNPSLKSRVTISRDTSKNQFSLKLSSVTAADTAVYYCARSFSYSYGFAYWGQGTLVTVSSASTKGPSVFPLAPSSKSTSGGTAALGCLVKDYFPEPVTVSWNSGALTSGVHTFPAVLQSSGLYSLSSVVTVPSSSLGTQTYICNVNHKPSNTKVDKRVEPKSCDKTHTCPPCPAPELLAGPDVFLFPPKPKDTLMISRTPEVTCVVVDVSHEDPEVKFNWYVDGVEVHNAKTKPREEQYNSTYRVVSVLTVLHQDWLNGKEYKCKVSNKALPLPEEKTISKAKGQPREPQVYTLPPSREEMTKNQVSLTCLVKGFYPSDIAVEWESNGQPENNYKTTPPVLDSDGSFFLYSKLTVDKSRWQQGNVFSCSVMHEALHNHYTQKSLSLSPG
light: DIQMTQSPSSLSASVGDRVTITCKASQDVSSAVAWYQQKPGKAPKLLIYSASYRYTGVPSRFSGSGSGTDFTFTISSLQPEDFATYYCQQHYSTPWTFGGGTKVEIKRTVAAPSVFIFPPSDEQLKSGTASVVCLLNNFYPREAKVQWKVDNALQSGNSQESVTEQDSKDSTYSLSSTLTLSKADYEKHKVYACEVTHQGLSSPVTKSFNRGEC
notes: also called AFF4 antibody
B11: H1L1 (antibody, V domains shown)
VH: B1 VH with T34A, Y58F, L100F
VL: B1 VL
notes: also called humanized antibody variant H1L1; parental antibody H1L1
B12: H3L1 (antibody, V domains shown)
VH: B1 VH with T34A, K44N, Y58F, L100F
VL: B1 VL
notes: also called humanized antibody variant H3L1
B13: H2L2 (antibody, V domains shown)
VH: B1 VH with T34A, K44N, M49I, Y58F, L100F
VL: B1 VL with Q3V, K42Q, A43S, S60D, V104L
notes: also called humanized antibody variant H2L2
B14: H3L2 (antibody, V domains shown)
VH: B1 VH with T34A, K44N, Y58F, L100F
VL: B1 VL with Q3V, K42Q, A43S, S60D, V104L
notes: also called humanized antibody variant H3L2
B15: H4L2 (antibody, V domains shown)
VH: B1 VH with T34A, K44N, G45K, L46V, Y58F, L100F
VL: B1 VL with Q3V, K42Q, A43S, S60D, V104L
notes: also called humanized antibody variant H4L2
B16: H1L2 (antibody, V domains shown)
VH: B1 VH with T34A, Y58F, L100F
VL: B1 VL with Q3V, K42Q, A43S, S60D, V104L
notes: also called humanized antibody variant H1L2
B17: H4L1 (antibody, V domains shown)
VH: B1 VH with T34A, K44N, G45K, L46V, Y58F, L100F
VL: B1 VL
notes: also called humanized antibody variant H4L1
B18: H2L1 (antibody, V domains shown)
VH: B1 VH with T34A, K44N, M49I, Y58F, L100F
VL: B1 VL
notes: also called humanized antibody variant H2L1

biological target: T1, soluble His-tagged human L1CAM (extracellular portion, amino acids 20 to 1120) (human, UniProt P32004 20-1120); assay: SPR (Biacore T200), antibody captured on Protein A chip, His-tagged human L1CAM as analyte 5, 10, 20, 40 nM, 1:1 Langmuir fit
T1 construct: range 20-1120; Expressed in HEK cells with an N-terminal leader peptide for secretion (not part of the assayed protein)
Protocol: (§1) Monovalent kinetic binding constants of the eight humanized antibody variants towards human L1CAM were determined by surface plasmon resonance using a Biacore T200 instrument. Antibodies were captured via their Fc regions on a C1 Protein A Chip (GE Healthcare), and soluble His-tagged human L1CAM was injected as analyte in 3 different concentrations (10, 20 and 40 nM), using 10 mM HEPES/150 mM NaCl/3 mM EDTA/0.05% Tween 20 as running buffer. Detected resonance units (sensorgrams) were fitted to a 1:1 Langmuir binding model and association (kₐ) and dissociation (kd) rate constants as well as the affinity constants (KD) were calculated.
The monovalent kinetic binding constants towards human L1CAM were determined by surface plasmon resonance using a Biacore T200 instrument as described in Example 4, except that soluble His-tagged human L1CAM was injected in 4 different concentrations (5, 10, 20 and 40 nM).

T1 sequence (P32004 other isoform, or with tags, fused parts or gaps limits assumed): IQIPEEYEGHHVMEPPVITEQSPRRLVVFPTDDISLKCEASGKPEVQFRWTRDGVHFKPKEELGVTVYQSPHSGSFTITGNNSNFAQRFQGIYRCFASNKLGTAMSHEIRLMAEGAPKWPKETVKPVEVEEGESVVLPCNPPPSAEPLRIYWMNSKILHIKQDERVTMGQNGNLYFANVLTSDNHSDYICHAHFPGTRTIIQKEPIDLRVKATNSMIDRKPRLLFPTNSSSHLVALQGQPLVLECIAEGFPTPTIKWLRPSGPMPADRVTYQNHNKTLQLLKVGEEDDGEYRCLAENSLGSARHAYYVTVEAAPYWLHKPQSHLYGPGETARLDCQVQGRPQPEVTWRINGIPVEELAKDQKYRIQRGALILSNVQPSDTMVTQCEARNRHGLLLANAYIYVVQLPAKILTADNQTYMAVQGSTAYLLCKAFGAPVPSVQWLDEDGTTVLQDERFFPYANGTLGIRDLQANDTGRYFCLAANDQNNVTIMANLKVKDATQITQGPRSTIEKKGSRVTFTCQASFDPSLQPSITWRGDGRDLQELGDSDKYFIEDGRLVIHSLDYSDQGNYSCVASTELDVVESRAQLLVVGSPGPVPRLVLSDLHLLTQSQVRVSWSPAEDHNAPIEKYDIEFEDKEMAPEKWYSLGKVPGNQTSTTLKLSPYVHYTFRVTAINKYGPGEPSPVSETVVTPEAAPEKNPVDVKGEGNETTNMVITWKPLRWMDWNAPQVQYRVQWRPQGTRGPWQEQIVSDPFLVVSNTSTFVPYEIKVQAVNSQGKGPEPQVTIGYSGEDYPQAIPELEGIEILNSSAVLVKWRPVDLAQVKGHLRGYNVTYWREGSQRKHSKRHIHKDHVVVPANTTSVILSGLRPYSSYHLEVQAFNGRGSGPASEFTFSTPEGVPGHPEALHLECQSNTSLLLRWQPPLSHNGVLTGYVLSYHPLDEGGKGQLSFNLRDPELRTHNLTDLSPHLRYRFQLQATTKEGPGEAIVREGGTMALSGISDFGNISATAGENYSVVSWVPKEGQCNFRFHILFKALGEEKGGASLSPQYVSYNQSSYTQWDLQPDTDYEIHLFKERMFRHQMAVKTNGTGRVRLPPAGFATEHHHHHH

Kd | koff | kon | Binder
0.72 nM | 0.000252 s⁻¹ | 349000 M⁻¹ s⁻¹ | B1
0.36 nM | 0.000104 s⁻¹ | 290000 M⁻¹ s⁻¹ | B2
0.22 nM | 6.52e-05 s⁻¹ | 299000 M⁻¹ s⁻¹ | B3
0.32 nM | 8.83e-05 s⁻¹ | 273000 M⁻¹ s⁻¹ | B4
0.99 nM | 0.000251 s⁻¹ | 255000 M⁻¹ s⁻¹ | B5
0.31 nM | 0.000126 s⁻¹ | 411000 M⁻¹ s⁻¹ | B6
0.3 nM | 0.000116 s⁻¹ | 383000 M⁻¹ s⁻¹ | B7
0.36 nM | 9.28e-05 s⁻¹ | 258000 M⁻¹ s⁻¹ | B8
0.98 nM | 0.000337 s⁻¹ | 345000 M⁻¹ s⁻¹ | B9
0.2 nM | 8.45e-05 s⁻¹ | 416000 M⁻¹ s⁻¹ | B10

biological target: T1, soluble His-tagged human L1CAM …; assay: SPR (Biacore T200), antibody captured on C1 Protein A chip, His-tagged human L1CAM as analyte 10, 20, 40 nM, 1:1 Langmuir fit
Protocol: as §1

Kd | koff | kon | Binder
4.5 nM | 0.00079 s⁻¹ | 177000 M⁻¹ s⁻¹ | B11
5.1 nM | 0.000858 s⁻¹ | 168000 M⁻¹ s⁻¹ | B12
6 nM | 0.000867 s⁻¹ | 144000 M⁻¹ s⁻¹ | B13
6.8 nM | 0.000887 s⁻¹ | 131000 M⁻¹ s⁻¹ | B14
6.3 nM | 0.000859 s⁻¹ | 137000 M⁻¹ s⁻¹ | B15
6.1 nM | 0.000872 s⁻¹ | 144000 M⁻¹ s⁻¹ | B16
4.7 nM | 0.000847 s⁻¹ | 179000 M⁻¹ s⁻¹ | B17
4.4 nM | 0.000751 s⁻¹ | 170000 M⁻¹ s⁻¹ | B18
